The target of data set [1] is T1, Engrailed 2 full length (En2, ChEn2) (Gallus gallus, UniProt Q05917 Q05917:1-289).
T1 sequence: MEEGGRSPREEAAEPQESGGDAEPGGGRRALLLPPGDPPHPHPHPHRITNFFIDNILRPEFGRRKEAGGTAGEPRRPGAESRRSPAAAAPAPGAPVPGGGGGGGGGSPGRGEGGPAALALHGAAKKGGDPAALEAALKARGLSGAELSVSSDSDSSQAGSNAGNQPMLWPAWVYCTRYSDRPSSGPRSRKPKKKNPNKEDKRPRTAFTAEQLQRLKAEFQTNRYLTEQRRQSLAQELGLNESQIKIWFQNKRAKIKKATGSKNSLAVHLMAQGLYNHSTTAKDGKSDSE
Put plainly: EMSA; two shifted complexes; no ATTA core; 20 mM Tris-HCl pH 7.9, 35 mM KCl, 2.5 mM MgCl2, poly-dIdC, on ice. The following applies: label: 32P.

The target in data set [2] is T2, EnHD (Engrailed 2 homeodomain, 60 aa) (Gallus gallus, UniProt Q05917 Q05917:200-259).
T2 sequence: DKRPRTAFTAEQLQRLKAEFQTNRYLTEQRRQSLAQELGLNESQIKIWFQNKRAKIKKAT
The data set is described as follows: EMSA; four complexes with 10 to 100 ng EnHD; fragment with six NP6 copies. The following applies: tags: E. coli pET-3a, heparin-sepharose purified, no tag stated; label: 32P. Here is the method: FIGS. 2A, 2B and 2C: Bacterially produced EnHD binds DNA and is efficiently internalized into cells in culture. (A) Polyacrylamide gel electrophoresis is of EnHD purified from *E. coli* extracts (Coomassie staining). (B) Band shift assay, performed by incubating 0.5 ng ^32P-ATP-labeled NP6 oligonucleotides with increasing amounts (0, 10, 20, 50 and 100 ng) of purified EnHD. (C) ES cells (upper Pannels) or GMA24FIA (lower Pannels) were incubated for 2 hrs. with FITC-EnHD (300 ng/ml) (left) or FITC alone (right).
The protocol described in FIG. 1 requires the EnHD added to the culture medium to be internalized by a large number of ES cells. EnHD was produced in E. coli and purified on heparin sepharose. […] To test the binding properties of EnHD, gel shift experiments were performed using a DNA fragment containing six copies of the NP6 site (TCAATTAAAT) (SEQ ID NO:3) known to bind Drosophila Engrailed.
On the technique in general: In EMSA bound probe runs differently from free probe, usually more slowly.

The target of data set [3] is T1, Engrailed 2 full length (En2, ChEn2). The data set is described as follows: EMSA; two shifted complexes; 20 mM Tris-HCl pH 7.9, 35 mM KCl, 2.5 mM MgCl2, poly-dIdC, on ice. Conditions: label: 32P.

B1: BPAG1e promoter oligonucleotide -694 to -665 (dsDNA)
DNA 1: CGCAGAATATTGGCTCAGTAACTAAGTGTG
DNA 2: CACACTTAGTTACTGAGCCAATATTCTGCG
On to B1, for which the binding result in data set [1] is on record as “binds”.

B2: NP6 site, six copies (dsDNA)
DNA 1: TCAATTAAAT
DNA 2: ATTTAATTGA
Take B2: in data set [2], the binding result is recorded as “binds”.

B3: BPAG1e promoter oligonucleotide -2225 to -2180 (dsDNA)
DNA 1: CTCAAATAATTAGTCATTAAAAAAAATAAAGGCATATGAGCCAGCCT
DNA 2: AGGCTGGCTCATATGCCTTTATTTTTTTTAATGACTAATTATTTGAG
In the case of B3, in data set [3], the binding result is recorded as “binds”.

Values taken from patent US6656735, “Method for identification of target genes of transcription factors” (GSF Forschungszentrum Fuer Umwelt Und Gesundheit GmbH).
